Experimental data from the DeepSol protein solubility set.

Assay: soluble on expression in E. coli; label from the status in PepcDB or PDB records

Row | Sequence | soluble on expression in E. coli
1 | MSLKKITMIQTQKKVGRFNIYINNKYAFPVSESILIKYRLHKGQELDENLIEEIKLADDISKGYNAALNYLSYQLRTRKEVEDKLRSLDIHEDYISEIINKLIDLDLINDKNYAESYVRTMMNTSDKGPKVIKLNLSKKGIDDNIAEDALILYTDKLQVEKGVTLAEKLANRYSHDSYRNKQNKIKQSLLTKGFSYDIIDTIIQELDLIFDDEGHHHHHH | soluble
2 | IGNGGAERGTRNTLDIRTVAHREADGSYRIKGEKFYSTGALFAHWVSIKALDDNGKTVMAFIERGTQGLRIVDDWSGFGQRTTASGTVLLDDVSVPAKQVVP | not soluble
3 | MIAITGASGQLGRLVIAQLLEKVPASDIVALVRDVNKVADLSAKGVQVKAADYNQPEALAFALQGVDKVLLISSSEVGQRAAQHRNVIEAAVKAGVKLVAYTSLLHADKSPLALAEEHRQTEALLKDSGLPHVLLRNGWYTENYAASIPAALEHGVFIGSAGEGKITSATREDFAAAAVAVLTQEGQAGKVYELAGDEPYTLVELAAEISKQSGKSIGYQNLSGAEFTAALVSAGLPDVFAQIIADSDVGASKGGLFDGGKHLSQLIGRPTTPLSAVVKATLKLEHHHHHH | not soluble
4 | MSLKIVNITTQVESIELKTPFKTALRQTSHVEFVRVEVECDNGFVGIGEASATKVITGEDIYIILTSIASVEELFLNLTCEEALGALHTKCAIGSSAKASLDIAFVHLLSQEAKKPLYEYFGATDKSALKSDITISLNEADVMLNDAKKAFSNGMDILKIKVGSDILHAIDIVRKIAKELPECDILVDANQAWSFENTVLFIENMLNTPIKLIEQPVEAPNLDGLKKITELSHIPILADEAVFTLKDAKKVIEEKCADMINIKLMKCGGVSKAIEILEFARNREFKCMLGSMLEGPYSINMALHLAFAYRDVIEFVDLDSPLLYKEMPKELDFVFDGCEIKPLEGHHHHHH | soluble
5 | MCFIMSKRNTQLRRHTIVKLVNEQGEVSVEALSSQFETSEVTIRKDLASLEKNGQLLRRYGGAIALPKEVMHDELNEKVSVRKISLAKAAAKLIRDHNRIVIDSGSTTAALIQQLNDKRGLVVMTNSLHVANALNELENEPTLLMTGGTWDTHSESFQGKVAESVLRSYDFDQLFIGADGIDLDRGTTTFNELVGLSKVMAEVSREVIVMIESDKVGRKIPNLELSWDNIDVLVTDHELSDEFAKQIESHQVRVIRATVK | not soluble
6 | MGSSHHHHHHSSGRENKYFQGHMRNVALITGITGQDGSYLAEFLLEKGYEVHGIVRRSSSFNTGRIEHLYKNPQAHIEGNMKLHYGDLTDSTCLVKIINEVKPTEIYNLGAQSHVKISFDLAEYTADVDGVGTLRLLDAVKTCGLINSVKFYQASTSELYGKVQEIPQKETTPFYPRSPYGAAKLYAYWIVVNFREAYNLFAVNGILFNHESPRRGANFVTRKISRSVAKIYLGQLECFSLGNLDAKRDWGHAKDYVEAMWLMLQNDEPEDFVIATGEVHSVREFVEKSFLHIGKTIVWEGKNENEVGRCKETGKVHVTVDLKYYRPTEVDFLQGDCTKAKQKLNWKPRVAFDELVREMVHADVELMRTNPNAGS | soluble
7 | MGMSATMGDSASIPGVFFADFGPAPPEITPEGYHEVELNKTKWVLPQWYNSLKPLGEGAYGVVCTAEYEPTGDRVAIKKFFRPFQSTIHAKRTYRELKLLRTLQHDNVLEMIDVFTPDPDASSLNNVYFVSVLMGSDLQNIMKIQRLTDEQIQLLIYQVLRGLKYIHSAGIIHRDLKPSNIAVNERCEVKVFLSFSQLSFLILSFFKILDFGLARAQDAEMTGYVATRWYRAPEIMLNWMHYTQTVDVWSVGCILAELVSGRPLFPGDDHIDQLTKIMSVVGTPKEEFWSKIQSEEARNYIKNRSPIIRQDFVTLFPMASPYALELLEMMLILDPDRRISVSSALRHDYLREYSVPNDEPVAMDTVINSIVTIDPAEERATTLSDWRELIWNEIRLFQNSARRLSFVSCTDTEEEPMKI | not soluble
8 | SMLSTEGREGFVVKVRGLPWSCSAEEVMRFFSDCKIQNGTSGVRFIYTREGRPSGEAFVELESEDEVKLALKKDRETMGHRYVEVFKSNSVEMDWVLKHTGPNSPDTANDGFVRLRGLPFGCSKEEIVQFFSGLEIVPNGMTLPVDFQGRSTGEAFVQFASQEIAEKALKKHKERIGHRYIEIFKSSRAEVRTHYDPPRKLMTMQRPGPYDRPGAGRGYNSIGRGAGFERMRRGAYGGGYGGYDDYGGYNDGYGFGSDRFGRDLNYCFSGMSDHRYGDGGSSFQSTTGHCVHMRGLPYRATENDIYNFFSPLNPMRVHIEIGPDGRVTGEADVEFATHEDAVAAMAKDKANMQHRYVELFLNSTAGTSGGAYDHSYVELFLNSTAGASGGAYGSQMMGGMGLSNQSSYGGPASQQLSGGYGGGYGGQSSMSGYDQVLQENSSDYQSNLA | not soluble
9 | MAHHHHHHMSLNAADAADERSRKEMDRFQVERMAGQGTFGTVQLGKEKSTGMSVAIKKVIQDPRFRNRELQIMQDLAVLHHPNIVQLQSYFYTLGERDRRDIYLNVVMEYVPDTLHRCCRNYYRRQVAPPPILIKVFLFQLIRSIGCLHLPSVNVCHRDIKPHNVLVNEADGTLKLCDFGSAKKLSPSEPNVAYICSRYYRAPELIFGNQHYTTSVDIWSVGCIFAEMMLGEPIFRGDNSAGQLHEIVRVLGCPSREVLRKLNPSHTDVDLYNSKGIPWSSVFCDHSLKDAKEAYDLLSALLQYLPEDRMKPYEALCHPYFDELHDSATKLPNNKDLPEDLFRFLPSEIEVMSEAQKAKLVRK | not soluble
10 | MTPGVDGVNKTMLQARLAVELQILRDELLSGHYQPLPARRVYIPKSNGKLRPLGIPALRDRIVQRAMLMAMEPIWESDFHTLSYGFRPERSVHHAIRTVKLQLTDCGETRGRWVIEGDLSSYFDTVHHRLLMKAVRRRISDARFMTLLWKTIKAGHIDVGLFRAASEGVPQGGVISPLLSNIMLNEFDQYLHERYLSGKARKDRWYWNNSIQRGRSTAVRENWQWKPAVAYCRYADDFVLIVKGTKAQVEAIREECRGVLEGSLKLRLNMDKTKIPHVNDGFIFLGHRLIRKRSRYGEMRVVSTIPQEKARNFAASLTALLWKVRISGEILLGLEHHHHHH | soluble
11 | MSDGETAVIQSLAPGPIDGVSYPLKMVYCGQCSMPPEYCDYSGQTDVCRAWATQNAPELLEGLEISDEPAADGDEKKKQKRGGKGSKTGAAAAQAAASGGKKKGGGPQKVTLQREPRGKKSVTVIKGLATFDIDLKVASKLFAQKFACGSSVTGADEIVIQGDVKDDLLDLIPEKWKQVTDEQIDDLGDKKR | soluble
12 | MEPYVGIVIFELAKSNTSPEENNSFFREDFYIVYADSEEAAHKLVEKRAHEEETPKNAAQDSGPTVTLRHIIDVAPALYGYVDKDCNLYSRHFASLEDYARFEMMLGGKDPLSH | soluble
13 | MSLGQKGHKDSLYPCGGTPESSLHEALDQCMTALDLFLTNQFSEALSYLKPRTKESMYHSLTYATILEMQAMMTFDPQDILLAGNMMKEAQMLCQRHRRKSSVTDSFSSLVNRPTLGQFTEEEIHAEVCYAECLLQRAALTFLQDENMVSFIKGGIKVRNSYQTYKELDSLVQSEGHHHHHH | not soluble
14 | MRQYVCCNYNEKEIKMKKFHFTDTSLFWGFSEEEAESVLKCLSAVNKTYKKDEYIFRMGDTITSVGMVLTGSVQVIREDYWGNRQIIAVMGEGQLFGESYACAGGEPLMVSVMAEENTEVLFLEVGRLLTVCSMACRFHSRVIQNLLKVIAGRNLTLTTKIDHMSKKTIREKVLSYLSYQAEKQGKNRFEIPFNRQQLADYLAVDRSALSAELSKMQKEKLISYDRNHFILP | not soluble
15 | MAMAVSGAVLSGLGSSFLTGGKRGATALASGVGTGAQRVGRKTLIVAAAAAQPKKSWIPAVKGGGNFLDPEWLDGSLPGDFGFDPLGLGKDPAFLKWYREAELIHGRWAMAAVLGIFVGQAWSGVAWFEAGAQPDAIAPFSFGSLLGTQLLLMGWVESKRWVDFFNPDSQSVEWATPWSKTAENFANYTGDQGYPGGRFFDPLGLAGKNRDGVYEPDFEKLERLKLAEIKHSRLAMVAMLIFYFEAGQGKTPLGALGL | soluble
16 | MSSRLDQLVNKYNKSCENVSFAEHMILKDKYESLVIEHESLIKTLELLEKTHGFTVEDLVTKQKEALEKKEVIEKWENKFGEMEKKLKTVERSIEYIMSVDVQTGVDSGSANRPNVKNSYQRGIF | not soluble
17 | MSEEGPQVKIREASKDNVDFILSNVDLAMANSLRRVMIAEIPTLAIDSVEVETNTTVLADEFIAHRLGLIPLQSMDIEQLEYSRDCFCEDHCDKCSVVLTLQAFGESESTTNVYSKDLVIVSNLMGRNIGHPIIQDKEGNGVLICKLRKGQELKLTCVAKKGIAKEHAKWGPAAAIEFEYDPWNKLKHTDYWYEQDSAKEWPQSKNCEYEDPPNEGDPFDYKAQADTFYMNVESVGSIPVDQVVVRGIDTLQKKVASILLALTQMDQDKVNFASGDNNTASNMLGSNEDVMMTGAEQDPYSNASQMGNTGSGGYDNAW | soluble
18 | KDWTQYVNPLMGSQSTFELSTGNTYPAIARPWGMNFWTPQTGKMGDGWQYTYTANKIRGFKQTHQPSPWINDYGQFSIMPIVGQPVFDEEKRASWFAHKGEVATPYYYKVYLAEHDIVTEMTPTERAVLFRFTFPENDHSYVVVDAFDKGSYIKIIPEENKIIGYTTRNSGGVPENFKNYFIIEFDKPFTYKATVENGNLQENVAEQTTDHAGAIIGFKTRKGEQVNARIASSFISFEQAAANMNELGKDNIEQLAQKGKDAWNQVLGKIEVEGGNLDQYRTFYSCLYRSLLFPRKFYELDANGQPIHYSPYNGQVLPGYMFTDTGFWDTFRCLFPLLNLMYPSVNKEMQEGLINTYLESGFFPEWASPGHRGCMVGNNSASILVDAYMKGVKVDDIKTLYEGLIHGTENVHPEVSSTGRLGYEYYNKLGYVPYDVKINENAARTLEYAYDDWCIYRLAKELKRPKKEISLFAKRAMNYKNLFDKESKLMRGRNEDGTFQSPFSPLKWGDAFTEGNSWHYTWSVFHDPQGLIDLMGGKEMFVTMMDSVFAVPPIFDDSYYGQVIHEIREMTVMNMGNYAHGNQPIQHMIYLYDYAGQPWKAQYWLRQVMDRMYTPGPDGYCGDEDNGQTSAWYVFSALGFYPVCPGTDEYVMGTPLFKKATLHFENGNSLVIDAPNNSTENFYIDSMSFNGADHTKNYLRHEDLFKGGTIKVDMSNRPNLNRGTKEEDMPYSFSKELEHHHHHH | soluble
19 | MADLFDGMKRRMDALIAERFGMKVNINGTDCIVVESDFLAELGPVEGNGKNVVVFSGNVIPRRGDRVVLRGSEFTVTRIRRFNGKPQLTLEENNGGKGA | soluble
20 | KTDDPRFKIYKLAYSAFLSRITVKDVIWNKDKGIKLMDGYYWDFINDPHLLVAGGTGGGKTVLLRSILRCLAEIGVCDICDPKRADFVTMSDLSAFEGRIAFEKADIIEKFENAVTIMFARYDFVRNEMKRLGHKDMKKFYDYGLEPYFFVCDEYNALMSSLSYQEREIVDNAFTQYILLGRQVGCNAIIAMQKPSA | not soluble
21 | MPEILKIKPTRMELLKLKRRVKLAERGHKLLKEKQDALIMEFFTIYDEALSLRRELIRKMEEAFNSLRRAQVDVGALRLKEIAIGVKPNKEIEIKTRNIMGVRVPLIEVPELKRKASERGYAFVSTTSTVDMAAEKFEEVLELAIRLAEVEESLKRLGKEIEKTKRRVNALEYIIIPRMENTIKFIEQHLDEMERENFFRLKRVKAILEARQSMLEHHHHHH | soluble
